Test results from patent publication US20220389075A1.

B1: α-CD28 + β-41BB (Linker GGS) (TCR)
TCR alpha: KQEVTQIPAALSVPEGENLVLNCSFTDSAIYNLQWFRQDPGKGLTSLLLIQSSQREQTSGRLNASLDKSSGRSTLYIAASQPGDSATYLCAVRPLYGGSYIPTFGRGTSLIVHPYIQNPDPAVYQLRDSKSSDKSVCLFTDFDSQTNVSQSKDSDVYITDKCVLDMRSMDFKSNSAVAWSNKSDFACANAFNNSIIPEDTFFPSPESSCDVKLVEKSFETDTNLNFQNLSVIGFRILLLKVAGFNLLMTLRLWSSGGSRSKRSRLLHSDYMNMTPRRPGPTRKHYQPYAPPRDFAAYRS
TCR beta: NAGVTQTPKFQVLKTGQSMTLQCAQDMNHEYMSWYRQDPGMGLRLIHYSVGAGITDQGEVPNGYNVSRSTTEDFPLRLLSAAPSQTSVYFCASSYVGNTGELFFGEGSRLTVLEDLKNVFPPEVAVFEPSEAEISHTQKATLVCLATGFYPDHVELSWWVNGKEVHSGVCTDPQPLKEQPALNDSRYCLSSRLRVSATFWQNPRNHFRCQVQFYGLSENDEWTQDRAKPVTQIVSAEAWGRADCGFTSESYQQGVLSA
B2: α-CD28 + β (Linker GGS) (TCR)
TCR alpha: B1 TCR alpha
TCR beta: B1 TCR beta
B3: α-CD28 + β-CD28 (Linker GGS) (TCR)
TCR alpha: B1 TCR alpha
TCR beta: NAGVTQTPKFQVLKTGQSMTLQCAQDMNHEYMSWYRQDPGMGLRLIHYSVGAGITDQGEVPNGYNVSRSTTEDFPLRLLSAAPSQTSVYFCASSYVGNTGELFFGEGSRLTVLEDLKNVFPPEVAVFEPSEAEISHTQKATLVCLATGFYPDHVELSWWVNGKEVHSGVCTDPQPLKEQPALNDSRYCLSSRLRVSATFWQNPRNHFRCQVQFYGLSENDEWTQDRAKPVTQIVSAEAWGRADCGFTSESYQQGVLSATILYEILLGKATLYAVLVSALVLMAMVKRKDSRGGGSRSKRSRLLHSDYMNMTPRRPGPTRKHYQPYAPPRDFAAYRS

The binders below were run against Alexa Fluor 647-labeled NY-ESO-1-MHC tetramer (assay: flow cytometry of transfected Jurkat NFAT-luciferase cells stained with Alexa Fluor 647-labeled NY-ESO-1-MHC tetramer; x axis Alexa 647-A; Empty Vector gate 0.46).

Row | NYESO+ | Binder
1 | 52.3% | B1
2 | 64.5% | B2
3 | 53.6% | B3
